# Reference: patent US7981423B2, “Rage fusion proteins” (Transtech Pharma, Inc., priority 2004, dated 2011)
# T1: S100b (S100) (Homo sapiens, UniProt P04271)
# T1 sequence (P04271 1-92): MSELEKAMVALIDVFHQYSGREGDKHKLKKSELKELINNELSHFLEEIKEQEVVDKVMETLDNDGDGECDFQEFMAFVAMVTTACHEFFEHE
# B1: TTP-4000: four domain RAGE fusion protein (SEQ ID NO: 32): human RAGE amino acids 1-251 linked to CH2 and CH3 domains of human IgG (protein)
# chain: MAAGTAVGAWALVLSLWGAVVGAQNITARIGEPLVLKCKGAPKKPPQRLEWKLNTGRTEAWKVLSPQGGGPWDSVARVLPNGSLFLPAVGIQDEGIFRCQAMNRNGKETKSNYRVRVYQIPGKPEIVDSASELTAGVPNKVGTCVSEGSYPAGTLSWHLDGKPLVPNEKGVSVKEQTRRHPETGLFTLQSELMVTPARGGDPRPTFSCSFSPGLPRHRALRTAPIQPRVWEPVPLEEVQLVVEPEGGAVAPPSVFLFPPKPKDTLMISRTPEVTCVVVDVSHEDPEVKFNWYVDGVEVHNAKTKPREEQYNSTYRVVSVLTVLHQDWLNGKEYKCKVSNKALPAPIEKTISKAKGQPREPQVYTLPPSRDELTKNQVSLTCLVKGFYPSDIAVEWESNGQPENNYKTTPPVLDSDGSFFLYSKLTVDKSRWQQGNVFSCSVMHEALHNHYTQKSLSLSPGK
# Columns and labels:
# [1] = Pharmacokinetic profile of TTP-4000 after IV injection; type: in vivo, monkeys; settings: single IV bolus 5 mg/kg; plasma; after saturation of ligands; FIG. 11
# Procedure: Following collection, the tubes were placed on wet ice (maximum 30 minutes) until centrifugation under refrigeration (at 2 to 8° C.) at 1500×g for 15 minutes. Each harvested plasma sample was then stored frozen (−70° C.±10° C.) until assayed for RAGE polypeptide using an ELISA at various time-points following the injection, as described in Example 6.
# Initially, 50 uL of the RAGE specific monoclonal antibody 1HB1011 at a concentration of 10 ug/mL in 1×PBS pH 7.3 is coated on plates via overnight incubation. When ready for use, plates are washed three times with 300 uL of 1× Imidazole-Tween wash buffer and blocked with 1% BSA. […] The samples are allowed to incubate at room temperature for one hour. After incubation, the plates are plates are washed three times. A Goat Anti-human IgG1 1 (Sigma A33 12) AP conjugate in 1×PBS with 1% BSA is added and allowed to incubate at room temperature for 1 hour. The plates are washed three times. Color was elucidated with paranitrophenylphosphate.
# amyloid-beta (Abeta) = molecular target: T2, amyloid-beta (Abeta) (Homo sapiens, UniProt P05067); experiment: In vitro ligand binding ELISA, immobilized amyloid-beta; settings: various dilutions of fusion protein; FIG. 7
# T2 construct: Amyloid Beta (1-40) from Biosource; purchased Biosource
# Procedure: (§1) For example, the RAGE fusion protein may be used in a binding assay to identify potential RAGE ligands. In one example embodiment of such a binding assay, a known RAGE ligand may coated onto a solid substrate (e.g., Maxisorb plates) at a concentration of about 5 micrograms per well, where each well contains a total volume of about 100 microliters (μL). The plates may be incubated at 4° C. overnight to allow the ligand to absorb. Alternatively, shorter incubation periods at higher temperature (e.g., room temperature) may be used. […] The fusion protein bound to the immobilized ligand may be detected in a variety of ways. […] The bound complex may be detected by adding the alkaline phosphatase substrate, para-nitrophenylphosphate (PNPP), and measuring conversion of PNPP to para-nitrophenol (PNP) as an increase in absorbance at 405 nm. […] Binding was detected by the addition of an immunodetection complex containing a monoclonal mouse anti-human IgG1 diluted 1:11,000 to a final assay concentration (FAC) of 21 ng/100 μL, a biotinylated goat anti-mouse IgG diluted 1:500, to a FAC of […], and an avidin-linked alkaline phosphatase. […] Binding of the complex to the immobilized fusion protein was quantified by measuring conversion of PNPP to para-nitrophenol (PNP) which was-measured spectrophotornetrically at 405 nm. […]
# S100b (S100) = molecular target: T1, S100b (S100); experiment: In vitro ligand binding ELISA, immobilized S100b; settings: various dilutions of fusion protein; FIG. 7
# Procedure: as §1
# amyloid-beta (A-beta) = experiment: Competition of a RAGE ligand with immobilized amyloid-beta for binding to the fusion protein; settings: TTP-4000 initial solution diluted 1:10 or 1:30; RAGE ligand 10 μM FAC
# Procedure: The fusion protein of the present invention may also be used to identify compounds having the ability to bind to RAGE.
# Known RAGE ligands were coated onto the surface of Maxisorb plates at a concentration of 5 micrograms per well. Plates were incubated at 4° C. overnight. Following ligand incubation, plates were aspirated and a blocking buffer of 1% BSA in 50 mM imidizole buffer (pH 7.2) was added to the plates for 1 hour at room temperature. The plates were then aspirated and/or washed with wash buffer (20 mM Imidizole, 150 mM NaCl, 0.05% Tween-20, 5 mM CaCl2 and 5 mM MgCl2, pH 7.2). […] The fusion protein was added at increasing dilutions of the initial sample. The RAGE fusion protein was allowed to incubate with the immobilized ligand at 37° C. for one hour after which the plate was washed and assayed for binding of the fusion protein. Binding was detected by the addition of an immunodetection complex containing a monoclonal mouse anti-human IgG1 diluted 1:11,000 to a final assay concentration (FAC) of 21 ng/100 μL, a biotinylated goat anti-mouse IgG diluted 1:500, to a FAC of […], and an avidin-linked alkaline phosphatase. The complex was incubated with the immobilized fusion protein for one hour at room temperature after which the plate was washed and the alkaline phosphatase substrate para-nitrophenylphosphate (PNPP) was added. […]
molecule,measurement,setting,value
B1,terminal half-life,[1],greater than 300 hours
same,binding to immobilized amyloid-beta (absorbance at 405 nm),amyloid-beta (Abeta),specifically interact
same,binding to immobilized S100b (absorbance at 405 nm),S100b (S100),specifically interact
same,inhibition of binding of TTP-4000 to immobilized amyloid-beta by the RAGE ligand,amyloid-beta (A-beta),completely inhibited
